Key:
[1] = test system: human PBMC; assay: IL-6 ELISA of supernatants of human PBMC cultured with NEU3; format: cell-based; settings: presence or absence of serum; two or five days
Method: To determine the effects of NEU3 on IL-6 production in human PBMC, human peripheral blood was collected from healthy volunteers who gave written consent and with specific approval from the Texas A&M University human subjects review board. PBMC were isolated from the blood using Ficoll-Paque density gradient centrifugation (GE Healthcare, Cincinnati, OH) following the manufacture's protocol. PBMCs were cultured at 10^5 cells/ml in each well of 96-well flat bottom tissue culture plates (VWR, Radnor, PA) with RPMI-1640 (VWR) supplemented with 10% bovine calf serum (BCS) (VWR), 100 U/ml penicillin, 100 μg/ml streptomycin, (VWR) and 2 mM glutamine (VWR) in a final volume of 200 μl per well. Cells were also cultured at 10^5 cells/ml in serum-free medium as described previously in Pilling, D., Vakil, V. & Gomer, R. H. Improved serum-free culture conditions for the differentiation of human and murine fibrocytes. […]
The culture supernatants were collected after two or five days and assayed using an IL-6 ELISA kit (BioLegend, San Diego, CA) following the manufacturer's protocol, reading absorbance with a SynergyMX plate reader (BioTek, Winooski, VT). Statistics were analyzed using Prism software (Graphpad, La Jolla, CA).

[2] = test system: human PBMC; assay: fibrocyte formation in human PBMC, serum-free medium; format: cell-based; settings: 5 days; for ability of SAP to inhibit fibrocyte formation: 100 ng/ml sialidase with 1 μg/ml SAP; for fibrocyte formation / differentiation: 100 ng/ml sialidase, 10 μg/ml DANA or 1 μg/ml SAP
Method: Human peripheral blood was collected from healthy adult volunteers who gave written consent and with specific approval from the Texas A&M University human subjects Institutional Review Board. Peripheral blood mononuclear cells (PBMC) were isolated from blood using Ficoll-Paque Plus (GE Healthcare Biosciences, Piscataway, NJ). Human PBMC were incubated in serum-free medium (FibroLife basal media (LM-0001, Lifeline Cell Technology, Walkersville, MD), supplemented with 10 mM HEPES (Sigma-Aldrich, St. Louis, MO), 1x non-essential amino acids (Sigma-Aldrich), 1 mM sodium pyruvate (Sigma-Aldrich), 2 mM glutamine (Invitrogen, Carlsbad, CA), 100 U/ml penicillin, 100 μg/ml streptomycin (Sigma-Aldrich), and 1x ITS-3 (Sigma-Aldrich) in the presence of absence of 100 ng/ml recombinant human sialidases (Origene, Rockville MD), 10 μg/ml DANA (Calbiochem, San Diego, CA), or 1 μg/ml human SAP (Calbiochem). After 5 days, fibrocytes were counted, and results are presented in FIG. 5.

[3] = recombinant human sialidase activity, 4MU-NANA cleavage at pH 6.4 and 7.0; format: biochemical
Method: In general, sialidase activity, including human sialidase activity, may be assessed at 37° C. in the presence of buffers ranging in pH from 3.7 to 7.4. Buffers with pH 3.7, 4.0, 4.6, 5.2 and 5.6 are 100 mM sodium acetate buffers. Buffers with pH 5.8, 6.4, 7.0 and 8.0 are based on Phosphate-Buffered Saline (PBS), with addition of 12 N HCl or 1 M NaOH to adjust the pH. Bovine serum albumin (BSA) is added to the buffer at a concentration of 100 ug/ml. Sialidase at a final concentration of 300 ng/ml is then added to the buffer. A sialidase inhibitor is then added to the mixture at a series of final concentrations. The reaction mixture is incubated for 30 minutes to allow the inhibitor to bind the sialidase. The fluorometric substrate 4MU-NANA [2′-(4-Methylumbelliferyl)-α-D-N-acetylneuraminic acid sodium salt hydrate is then added at a final concentration of 200 μM. Control reactions have no added inhibitor. The total volume of each reaction mixture is 0.1 ml. The cleavage of 4MU-NANA is then monitored by fluorescence every 20 minutes for 5 hours with excitation light at 360 nm and the fluorescence emission at 460 nm.
The fluorescence in the absence of sialidases is subtracted from all readings. The fluorescence of known concentrations of 4-methylumbelliferone is used to convert fluorescence to moles of product.
To determine if sialidases have enzymatic activity at the pH of the extracellular environment, sialidases may be assayed at pH 7.0, approximately corresponding to an extracellular pH in a normal tissue, at pH 6.4, approximately corresponding to an extracellular pH in a fibrotic tissue, or both.
In an example assay, recombinant human sialidases were assayed at pH 6.4, approximately corresponding to the extracellular pH that might occur in a fibrotic tissue, and at pH 7.0, approximately corresponding to a normal extracellular pH.

[4] = test system: human PBMC; assay: TGF-β1 accumulation by human PBMC (antibody staining and ELISA); format: cell-based; settings: recombinant sialidase 200 ng/ml; five days
Method: To determine if sialidases might cause cells to accumulate intracellular and extracellular TGF-β1, human PBMC were cultured with sialidases in 96 well plates at 5×10^5 cells/ml and 200 μl/well in FibroLife serum-free medium for five days, then air dried. The levels of TGF-β1 in or on the cells was detected by staining with an antibody against TGF-β1. Photomicrographs were analyzed by counting stained cells (FIG. 7B) and quantifying staining intensity using ImageJ (FIG. 7C).
PBMC were cultured in 96 well plates at 5×10^5 cells/ml and 200 μl/well in FibroLife serum-free medium. When the cells were plated, recombinant human sialidases were added to final concentrations of 200 ng/ml, and DANA or oseltamivir were added to 3 μM. After 5 days, culture supernatants were analyzed using a TGF-β1 ELISA kit (R&D Systems).

[5] = test system: human PBMC; assay: sialidase staining of human PBMC cultured with recombinant sialidases; format: cell-based
From the text: In a similar experiment, cells were stained for NEU1, NEU2, NEU3, or NEU4 using antibodies.

B1: NEU3: recombinant human sialidase NEU3 (TP316537, Origene) (protein, UniProt Q9UQ49 1-428, looked up)
Sialidase-3: MEEVTTCSFNSPLFRQEDDRGITYRIPALLYIPPTHTFLAFAEKRSTRRDEDALHLVLRRGLRIGQLVQWGPLKPLMEATLPGHRTMNPCPVWEQKSGCVFLFFICVRGHVTERQQIVSGRNAARLCFIYSQDAGCSWSEVRDLTEEVIGSELKHWATFAVGPGHGIQLQSGRLVIPAYTYYIPSWFFCFQLPCKTRPHSLMIYSDDLGVTWHHGRLIRPMVTVECEVAEVTGRAGHPVLYCSARTPNRCRAEALSTDHGEGFQRLALSRQLCEPPHGCQGSVVSFRPLEIPHRCQDSSSKDAPTIQQSSPGSSLRLEEEAGTPSESWLLYSHPTSRKQRVDLGIYLNQTPLEAACWSRPWILHCGPCGYSDLAALEEEGLFGCLFECGTKQECEQIAFRLFTHREILSHLQGDCTSPGRNPSQFKSN
extracellular accumulation of IL-6 [1]: significantly upregulated
ability of SAP to inhibit fibrocyte formation [2]: partially counteracted
Sialidase activity ([3]; pH 6.4): 15.2 ± 1.0 μmole/min/mg protein
Sialidase activity ([3]; pH 7.0): 8.3 ± 1.2 μmole/min/mg protein
accumulation of TGF-β1 [4]: increased both cell-associated and extracellular TGF-β1

B2: NEU4: recombinant human NEU4 (sialidase 4), human neuraminidase 4 (protein, UniProt Q8WWR8 1-484, looked up)
Sialidase-4: MGVPRTPSRTVLFERERTGLTYRVPSLLPVPPGPTLLAFVEQRLSPDDSHAHRLVLRRGTLAGGSVRWGALHVLGTAALAEHRSMNPCPVHDAGTGTVFLFFIAVLGHTPEAVQIATGRNAARLCCVASRDAGLSWGSARDLTEEAIGGAVQDWATFAVGPGHGVQLPSGRLLVPAYTYRVDRRECFGKICRTSPHSFAFYSDDHGRTWRCGGLVPNLRSGECQLAAVDGGQAGSFLYCNARSPLGSRVQALSTDEGTSFLPAERVASLPETAWGCQGSIVGFPAPAPNRPRDDSWSVGPGSPLQPPLLGPGVHEPPEEAAVDPRGGQVPGGPFSRLQPRGDGPRQPGPRPGVSGDVGSWTLALPMPFAAPPQSPTWLLYSHPVGRRARLHMGIRLSQSPLDPRSWTEPWVIYEGPSGYSDLASIGPAPEGGLVFACLYESGARTSYDEISFCTFSLREVLENVPASPKPPNLGDKPRGCCWPS
ability of SAP to inhibit fibrocyte formation [2]: partially counteracted
fibrocyte formation / differentiation [2]: potentiated fibrocyte formation
Sialidase activity ([3]; pH 6.4): 3.8 ± 0.8 μmole/min/mg protein
Sialidase activity ([3]; pH 7.0): 2.6 ± 0.9 μmole/min/mg protein
accumulation of TGF-β1 [4]: no significant effect

B3: NEU2: recombinant human NEU2 (sialidase 2), human neuraminidase 2 (protein, UniProt Q9Y3R4 1-380, looked up)
Sialidase-2: MASLPVLQKESVFQSGAHAYRIPALLYLPGQQSLLAFAEQRASKKDEHAELIVLRRGDYDAPTHQVQWQAQEVVAQARLDGHRSMNPCPLYDAQTGTLFLFFIAIPGQVTEQQQLQTRANVTRLCQVTSTDHGRTWSSPRDLTDAAIGPAYREWSTFAVGPGHCLQLHDRARSLVVPAYAYRKLHPIQRPIPSAFCFLSHDHGRTWARGHFVAQDTLECQVAEVETGEQRVVTLNARSHLRARVQAQSTNDGLDFQESQLVKKLVEPPPQGCQGSVISFPSPRSGPGSPAQWLLYTHPTHSWQRADLGAYLNPRPPAPEAWSEPVLLAKGSCAYSDLQSMGTGPDGSPLFGCLYEANDYEEIVFLMFTLKQAFPAEYLPQ
levels of NEU3 in PBMC [5]: upregulate levels of NEU3
ability of SAP to inhibit fibrocyte formation [2]: partially counteracted
fibrocyte formation / differentiation [2]: potentiated fibrocyte formation
Sialidase activity ([3]; pH 6.4): 16.4 ± 1.2 μmole/min/mg protein
Sialidase activity ([3]; pH 7.0): 8.9 ± 1.2 μmole/min/mg protein
accumulation of TGF-β1 [4]: increased both cell-associated and extracellular TGF-β1

From patent US20250144172A1, “ANTI-FIBROTIC SIALIDASE INHIBITOR COMPOUNDS AND METHODS OF USE” (The Texas A&M University System, priority 2016, published 2025)
